Test results: patent publication US20160347834A1 (ZENOAQ RESOURCE, published 2016)

Key:
[1] = target: T1, synthetic peptide of human podoplanin from position 69 to position 88 (human); assay: ELISA on synthetic peptides
T1 peptide: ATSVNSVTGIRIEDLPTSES

[2] = target: T2, human podoplanin on glioblastoma cells LN319 (human, UniProt Q86YL7 23-162); assay: flow cytometry on LN319 cells, antibody 1 µg/ml
T2 construct: Podoplanin of the LN319 cell line itself; also called LN 319 cells; podoplanin expression strain
T2 chain: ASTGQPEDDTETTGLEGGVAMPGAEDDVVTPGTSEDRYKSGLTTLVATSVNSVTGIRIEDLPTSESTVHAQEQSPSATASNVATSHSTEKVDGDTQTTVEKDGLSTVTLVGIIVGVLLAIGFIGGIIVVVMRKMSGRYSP
Protocol: (§1) Reactivity of the anti-podoplanin antibodies (LpMab-2, LpMab-3, LpMab-7, and LpMab-9) with a podoplanin expression strain was studied by flow cytometry. […] The reaction products were each reacted further with an anti-mouse IgG-FITC antibody (product of Life Technologies) at 4° C. for 30 minutes. As a negative control, only the secondary antibody of each of them was used. Fluorescence intensity was measured using EC800 (product of Sony).

[3] = target: T3, human podoplanin on mesothelial cells Met-5A (human, UniProt Q86YL7 23-162); assay: flow cytometry on Met-5A cells, antibody 1 µg/ml
T3 construct: Podoplanin of the cell line itself; also called normal mesothelial cells; normal epithelial cell line (Met-5A)
T3 chain: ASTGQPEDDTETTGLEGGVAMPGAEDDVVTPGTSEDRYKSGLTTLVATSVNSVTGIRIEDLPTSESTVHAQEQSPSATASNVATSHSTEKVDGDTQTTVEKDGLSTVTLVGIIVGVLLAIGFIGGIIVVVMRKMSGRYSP
Protocol: as §1

[4] = target: T4, human podoplanin on lung squamous cell cancer tissue (paraffin section) (human, UniProt Q86YL7 23-162); assay: immunohistostaining of paraffin sections (FIG. 8)
T4 chain: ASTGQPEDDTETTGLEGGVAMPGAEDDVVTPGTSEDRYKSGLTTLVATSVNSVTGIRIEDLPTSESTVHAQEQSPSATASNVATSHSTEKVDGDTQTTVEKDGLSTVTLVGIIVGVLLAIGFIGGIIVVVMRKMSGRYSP
Protocol: (§2) Various paraffin sections were deparaffined in xylene and ethanol solutions. Antigen activation operation was not performed. The endogenous peroxidase was inactivated with 3% H₂O₂. Blocking was performed at room temperature for 10 minutes with SuperBlock (product of Thermo Fisher) and the primary antibody was reacted at room temperature for one hour. After amplification using a LSAB kit (product of Dako), color was developed using DAB (product of Dako).
(§3) LpMab-23 is a cancer cell-specific antibody. […] LpMab-7 used as a positive control reacted with both cancer cells and lymphatic epithelial cells.

[5] = target: T5, human podoplanin on esophageal squamous cell cancer tissue (paraffin section) (human, UniProt Q86YL7 23-162); assay: immunohistostaining of paraffin sections (FIG. 8)
T5 construct: also called esophagus squamous cell cancer
T5 chain: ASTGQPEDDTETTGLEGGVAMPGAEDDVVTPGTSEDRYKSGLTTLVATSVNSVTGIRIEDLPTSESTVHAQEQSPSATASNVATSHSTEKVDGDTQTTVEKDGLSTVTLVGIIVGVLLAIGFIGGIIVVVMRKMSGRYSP
Protocol: as §2, §3

[6] = target: T6, human podoplanin on glioblastoma tissue (paraffin section) (human, UniProt Q86YL7 23-162); assay: immunohistostaining of paraffin sections (FIG. 8)
T6 chain: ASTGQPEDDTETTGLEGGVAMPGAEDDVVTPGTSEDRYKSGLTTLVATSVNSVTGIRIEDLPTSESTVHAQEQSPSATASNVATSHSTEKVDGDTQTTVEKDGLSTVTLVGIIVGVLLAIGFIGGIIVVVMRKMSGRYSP
Protocol: as §2, §3

[7] = target: T7, human podoplanin on seminoma tissue (paraffin section) (human, UniProt Q86YL7 23-162); assay: immunohistostaining of paraffin sections (FIG. 8)
T7 chain: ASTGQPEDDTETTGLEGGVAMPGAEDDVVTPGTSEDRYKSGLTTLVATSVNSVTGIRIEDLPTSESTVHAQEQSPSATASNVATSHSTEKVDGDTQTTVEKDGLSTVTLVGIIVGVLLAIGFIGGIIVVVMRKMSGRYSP
Protocol: as §2, §3

[8] = target: T8, human podoplanin on renal epithelial cells HEK-293T (human, UniProt Q86YL7 23-162); assay: flow cytometry on HEK-293T cells, antibody 1 µg/ml
T8 construct: Podoplanin of the cell line itself; also called normal renal epithelial cells
T8 chain: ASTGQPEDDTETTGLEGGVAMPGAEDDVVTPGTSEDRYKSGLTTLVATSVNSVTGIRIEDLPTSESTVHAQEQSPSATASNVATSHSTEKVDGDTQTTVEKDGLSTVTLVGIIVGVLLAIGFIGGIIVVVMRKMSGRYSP
Protocol: as §1

[9] = target: T9, human podoplanin on oral cancer cells HSC3/hPDPN (human, UniProt Q86YL7 23-162); assay: flow cytometry on HSC3/hPDPN cells, antibody 1 µg/ml
T9 construct: Podoplanin gene expression strain; also called oral cancer cell line
T9 chain: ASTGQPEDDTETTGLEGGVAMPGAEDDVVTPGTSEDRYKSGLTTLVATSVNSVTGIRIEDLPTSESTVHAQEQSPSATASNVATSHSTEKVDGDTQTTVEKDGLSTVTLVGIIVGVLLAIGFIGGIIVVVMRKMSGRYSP
Protocol: as §1

[10] = target: T10, human podoplanin on malignant mesothelioma cells Y-MESO14-hPDPN (human, UniProt Q86YL7 23-162); assay: flow cytometry on Y-MESO14-hPDPN cells, antibody 1 µg/ml
T10 construct: Podoplanin gene expression strain
T10 chain: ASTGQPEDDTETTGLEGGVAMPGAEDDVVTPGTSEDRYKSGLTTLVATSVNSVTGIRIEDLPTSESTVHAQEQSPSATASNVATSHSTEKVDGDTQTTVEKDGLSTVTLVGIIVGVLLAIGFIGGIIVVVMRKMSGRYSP
Protocol: as §1

[11] = target: T11, human podoplanin on lung squamous cell cancer cells RERF-LC-AI-hPDPN (human, UniProt Q86YL7 23-162); assay: flow cytometry on RERF-LC-AI-hPDPN cells, antibody 1 µg/ml
T11 construct: Podoplanin gene expression strain
T11 chain: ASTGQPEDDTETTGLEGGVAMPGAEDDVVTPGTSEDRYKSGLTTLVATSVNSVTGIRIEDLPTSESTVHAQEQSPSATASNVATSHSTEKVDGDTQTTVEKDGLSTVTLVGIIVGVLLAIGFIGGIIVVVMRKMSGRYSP
Protocol: as §1

[12] = target: T12, human podoplanin on lymphatic endothelial cells (human, UniProt Q86YL7 23-162); assay: flow cytometry on lymphatic endothelial cells, antibody 1 µg/ml
T12 construct: Normal cells; cultured cells in flow cytometry, cells in paraffin sections in immunohistostaining (see assay of each row); also called lymphatic epithelial cells; lymphatic cells
T12 chain: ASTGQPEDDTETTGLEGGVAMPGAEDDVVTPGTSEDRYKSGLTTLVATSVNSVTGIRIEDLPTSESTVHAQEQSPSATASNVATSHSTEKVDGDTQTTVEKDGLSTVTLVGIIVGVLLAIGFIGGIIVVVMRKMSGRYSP
Protocol: as §1

[13] = target: T13, human podoplanin on normal alveolar epithelial cells (paraffin section) (human, UniProt Q86YL7 23-162); assay: immunohistostaining of a normal lung paraffin section (FIG. 4D)
T13 construct: also called normal lung
T13 chain: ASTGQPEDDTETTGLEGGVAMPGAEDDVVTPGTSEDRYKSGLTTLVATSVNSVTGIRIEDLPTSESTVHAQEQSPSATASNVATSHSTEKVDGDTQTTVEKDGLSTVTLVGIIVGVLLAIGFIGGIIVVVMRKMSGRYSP
Protocol: (§4) Various paraffin sections were deparaffined in xylene and ethanol solutions. The resulting sections were autoclaved for 20 minutes using an antigen activator reagent (citrate buffer (pH 6.0): product of Dako). Endogenous peroxidase was inactivated with 3% H₂O₂. After blocking at room temperature for 10 minutes with SuperBlock (product of Thermo Fisher), a primary antibody was reacted at room temperature for one hour. After amplification using a LSAB kit (product of Dako), color was developed using DAB (product of Dako).
(§5) LpMab-2 is a tumor-specific antibody. […] LpMab-7 reacted with both (FIG. 4B), which coincided with the data of flow cytometry. LpMab-2 reacted with neither normal alveolar epithelial cells nor lymphatic cells (FIG. 4C). The LpMab-7 on the other hand stained alveolar epithelial cells and lymphatic vessel (FIG. 4D).

[14] = target: T14, human podoplanin on testicular tumor cells (paraffin section) (human, UniProt Q86YL7 23-162); assay: immunohistostaining of a testicular tumor paraffin section (FIG. 4B)
T14 construct: also called tumor portion of testicular tumor
T14 chain: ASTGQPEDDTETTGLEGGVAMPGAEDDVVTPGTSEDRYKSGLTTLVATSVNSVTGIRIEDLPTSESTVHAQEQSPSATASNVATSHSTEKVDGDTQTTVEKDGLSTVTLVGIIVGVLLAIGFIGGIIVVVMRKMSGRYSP
Protocol: as §4, §5

[15] = target: T2, human podoplanin on glioblastoma cells …; assay: flow cytometry on LN319 cells, culture supernatant

Measured: binding result

B1: LpMab-7 (antibody)
heavy: DVQLVESGGGLVQPGGSRKLSCAASGFTFSGFGMHWVRQAPEKGLEWVAYISSVSSRIYYADTVKGRFTISRDNPKNTLFLQMTSLRSEDTAMYYCAREQTGPAWFAYWGQGTLVTVSAAKTTPPSVYPLAPGSAAQTNSMVTLGCLVKGYFPEPVTVTWNSGSLSSGVHTFPAVLQSDLYTLSSSVTVPSSTWPSETVTCNVAHPASSTKVDKKIVPRDCGCKPCICTVPEVSSVFIFPPKPKDVLTITLTPKVTCVVVDISKDDPEVQFSWFVDDVEVHTAQTQPREEQFNSTFRSVSELPIMHQDWLNGKEFKCRVNSAAFPAPIEKTISKTKGRPKAPQVYTIPPPKEQMAKDKVSLTCMITDFFPEDITVEWQWNGQPAENYKNTQPIMDTDGSYFVYSKLNVQKSNWEAGNTFTCSVLHEGLHNHHTEKSLSHSPGK
light: DVLMTQTPLSLPVSLGDQASISCRSSRNIVQSTGNTYLEWYLQKPGQSPKLLIFKVSNRFSGVPDRFSGSGSGTDFTLKISRVEAEDLGVYYCFQGSHVPPWTFGGGTKLEIKRADAAPTVSIFPPSSEQLTSGGASVVCFLNNFYPKDINVKWKIDGSERQNGVLNSWTDQDSKDSTYSMSSTLTLTKDEYERHNSYTCEATHKTSTSPIVKSFNRNEC
notes: Mouse IgG1, kappa, from hybridoma; Entries may hold the signal peptide
not listed: [15]
binds: all other assays above

B2: rLpMab-7 (antibody, mouse IgG1, kappa)
heavy: DVQLVESGGGLVQPGGSRKLSCAASGFTFSGFGMHWVRQAPEKGLEWVAYISSVSSRIYYADTVKGRFTISRDNPKNTLFLQMTSLRSEDTAMYYCAREQTGPAWFAYWGQGTLVTVSAAKTTPPSVYPLAPGSAAQTNSMVTLGCLVKGYFPEPVTVTWNSGSLSSGVHTFPAVLQSDLYTLSSSVTVPSSTWPSETVTCNVAHPASSTKVDKKIVPRDCGCKPCICTVPEVSSVFIFPPKPKDVLTITLTPKVTCVVVDISKDDPEVQFSWFVDDVEVHTAQTQPREEQFNSTFRSVSELPIMHQDWLNGKEFKCRVNSAAFPAPIEKTISKTKGRPKAPQVYTIPPPKEQMAKDKVSLTCMITDFFPEDITVEWQWNGQPAENYKNTQPIMDTDGSYFVYSKLNVQKSNWEAGNTFTCSVLHEGLHNHHTEKSLSHSPGK
light: DVLMTQTPLSLPVSLGDQASISCRSSRNIVQSTGNTYLEWYLQKPGQSPKLLIFKVSNRFSGVPDRFSGSGSGTDFTLKISRVEAEDLGVYYCFQGSHVPPWTFGGGTKLEIKRADAAPTVSIFPPSSEQLTSGGASVVCFLNNFYPKDINVKWKIDGSERQNGVLNSWTDQDSKDSTYSMSSTLTLTKDEYERHNSYTCEATHKTSTSPIVKSFNRNEC
notes: Full-length H and L chain of LpMab-7 expressed in CHO cells; also called recombinant LpMab-7
binds: [15]

B3: chLpMab-3 (antibody, human IgG1, kappa, V domains shown)
VH: EVQLVESGGGLVKPGGSLKLSCAASGFTFTRYAMSWVRQTPEKRLEWVATISNGGSYTYYLDSVKGRFTLSRDNAKNTLYLQMSSLRSEDTAMYYCARREGGQAGPAWFVYWGQGTLVTVSA
VL: DIVMTQSPSSLAMSVGQKVTMNCKSSQSLLNSSNQKNYLAWYQQKPGQSPKLLVYFASTRESGVPDRFIGSGSGTDFTLTISSAQAEDLADYFCQQYYSTPPTFGAGTKLELKR
notes: culture supernatant used; also called human chimeric LpMab-3
binds: [15]

B4: chLpMab-7 (antibody, human IgG1, kappa)
heavy: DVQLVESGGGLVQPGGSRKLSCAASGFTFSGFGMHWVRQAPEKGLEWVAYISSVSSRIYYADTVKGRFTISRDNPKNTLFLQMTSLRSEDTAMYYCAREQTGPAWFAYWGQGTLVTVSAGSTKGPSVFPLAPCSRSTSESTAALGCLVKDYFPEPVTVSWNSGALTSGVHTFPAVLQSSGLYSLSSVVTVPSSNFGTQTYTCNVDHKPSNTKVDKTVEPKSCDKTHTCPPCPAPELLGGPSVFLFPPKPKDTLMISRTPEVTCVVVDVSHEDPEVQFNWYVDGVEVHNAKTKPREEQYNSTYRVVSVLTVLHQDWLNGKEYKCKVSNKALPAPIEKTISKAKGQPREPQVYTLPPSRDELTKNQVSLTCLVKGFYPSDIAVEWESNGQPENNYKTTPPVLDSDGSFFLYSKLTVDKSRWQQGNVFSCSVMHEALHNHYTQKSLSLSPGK
light: DVLMTQTPLSLPVSLGDQASISCRSSRNIVQSTGNTYLEWYLQKPGQSPKLLIFKVSNRFSGVPDRFSGSGSGTDFTLKISRVEAEDLGVYYCFQGSHVPPWTFGGGTKLEIKRADAAPTVSIFPPSSEQLTSGGASVVCFLNNFYPKDINVKWKIDGSERQNGVLNSWTDQDSKDSTYSMSSTLTLTKDEYERHNSYTCEATHKTSTSPIVKSFNRNEC
notes: culture supernatant used; also called human chimeric LpMab-7
binds: [15]

B5: chLpMab-23 (antibody, human IgG1, kappa, V domains shown)
VH: QVQLKESGPGLVAPSQSLSITCTVSGFSVTSYGIHWVRQPPGKGLEWLGVIWTSGNTNYNSALMSRLSISRDNSKSQVFLKMNSLQTDDTAMYYCAREDYYGYAMDYWGQGTSVTVSS
VL: not shown
notes: Variable regions of LpMab-23 with human IgG1 constant region; Culture supernatant used; also called human chimeric LpMab-23 antibody
binds: [15]
